Assay results from patent US20160002338A1 (Hoffmann-La Roche, published 2016).

What was measured:
[1] = target: T1, human recombinant HER3 ECD (human, UniProt P21860 20-643); assay: SPR Biacore 3000, 37 C
T1 construct: 68 kDa; also called human-Her3-ECD; full length Her3 ECD

HER3 ECD-HRG complex = target: T2, HER3 ECD-HRG complex (human, UniProt P21860 20-643); assay: SPR Biacore 3000, 37 C
T2 construct: also called Heregulin/Her-3 ECD

HER4 ECD-HRG complex = target: T3, HER4 ECD-HRG complex (human, UniProt Q15303 26-651); assay: SPR Biacore 3000, 37 C
T3 construct: HER4 ECD preincubated with a 5-fold molar excess of Heregulin; also called HER-4-ECD-RG
T3 sequence 1: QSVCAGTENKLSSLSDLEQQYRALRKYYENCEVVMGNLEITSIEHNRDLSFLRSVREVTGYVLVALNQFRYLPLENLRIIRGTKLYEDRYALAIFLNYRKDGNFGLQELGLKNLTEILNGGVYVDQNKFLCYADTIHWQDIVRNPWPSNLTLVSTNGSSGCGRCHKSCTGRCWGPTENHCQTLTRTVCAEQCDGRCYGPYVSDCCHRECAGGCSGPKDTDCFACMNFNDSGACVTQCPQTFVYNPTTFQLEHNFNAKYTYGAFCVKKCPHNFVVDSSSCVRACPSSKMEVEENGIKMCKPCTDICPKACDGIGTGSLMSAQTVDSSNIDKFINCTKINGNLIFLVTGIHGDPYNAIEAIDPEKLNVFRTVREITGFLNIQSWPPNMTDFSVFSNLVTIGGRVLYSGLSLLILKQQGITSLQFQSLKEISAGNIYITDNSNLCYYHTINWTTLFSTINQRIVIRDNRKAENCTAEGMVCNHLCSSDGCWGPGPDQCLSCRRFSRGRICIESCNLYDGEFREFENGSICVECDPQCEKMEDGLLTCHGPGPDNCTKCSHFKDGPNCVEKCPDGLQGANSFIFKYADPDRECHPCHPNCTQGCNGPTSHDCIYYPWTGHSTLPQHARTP
T3 sequence 2: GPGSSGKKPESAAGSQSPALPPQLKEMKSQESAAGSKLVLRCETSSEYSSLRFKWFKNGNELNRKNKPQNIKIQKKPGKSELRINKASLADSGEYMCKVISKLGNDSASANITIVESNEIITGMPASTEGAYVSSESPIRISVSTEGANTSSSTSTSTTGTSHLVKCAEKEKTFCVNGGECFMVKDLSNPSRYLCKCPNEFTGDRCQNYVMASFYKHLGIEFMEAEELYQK

[2] = target: T1, human recombinant HER3 ECD; assay: SPR Biacore T100, antibody captured, 25 C
Experimental: (§1) A CM5 series sensor was mounted into the system and was normalized in HBS-ET buffer (10 mM HEPES pH 7.4, 150 mM NaCl, 3 mM EDTA, 0.005% w/v Tween 20) according to the manufacturer's instructions. The sample buffer was the system buffer supplemented with 1 mg/ml CMD (Carboxymethyldextran, Sigma #86524). The system operated at 25° C. 6500 RU RAM-Fcγ (relative units of Fcγ-fragment RamIgG, GE Healthcare) were immobilized according to the manufacturer's instructions using EDC/NHS chemistry on all four flow cells. The sensor was deactivated using 1M ethanolamine.
(§2) Analytes in solution were injected at different concentration steps of 0 nM, 1.1 nM, 3.7 nM, 11.1 nM, 33.1 nM and 90 nM for 3.5 min. The dissociation was monitored for 15 min. Where possible, kinetic signatures were evaluated according to a Langmuir fit.

[3] = target: T4, human recombinant HER4 ECD (human, UniProt Q15303 26-651); assay: SPR Biacore T100, antibody captured, 25 C
T4 construct: also called full length Her4 ECD
T4 sequence: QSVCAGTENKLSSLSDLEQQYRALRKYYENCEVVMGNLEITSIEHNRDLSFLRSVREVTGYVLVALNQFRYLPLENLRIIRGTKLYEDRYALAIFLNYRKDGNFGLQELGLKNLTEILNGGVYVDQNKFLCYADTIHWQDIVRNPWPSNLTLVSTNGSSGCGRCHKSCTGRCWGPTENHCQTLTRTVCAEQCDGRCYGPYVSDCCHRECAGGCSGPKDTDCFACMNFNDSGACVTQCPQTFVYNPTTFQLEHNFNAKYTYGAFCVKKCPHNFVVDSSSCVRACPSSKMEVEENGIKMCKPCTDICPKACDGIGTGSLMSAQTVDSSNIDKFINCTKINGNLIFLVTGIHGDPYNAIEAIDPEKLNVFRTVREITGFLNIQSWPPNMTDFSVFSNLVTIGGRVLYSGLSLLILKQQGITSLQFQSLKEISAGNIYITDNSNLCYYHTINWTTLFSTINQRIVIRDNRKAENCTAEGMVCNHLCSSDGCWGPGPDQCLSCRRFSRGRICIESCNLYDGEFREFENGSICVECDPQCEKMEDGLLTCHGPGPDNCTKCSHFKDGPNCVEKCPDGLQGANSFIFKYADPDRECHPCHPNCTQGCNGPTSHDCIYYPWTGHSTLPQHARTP
Experimental: as §1, §2

[4] = target: T5, human recombinant HER2 ECD (human, UniProt P04626 23-652); assay: SPR Biacore T100, antibody captured, 25 C
T5 construct: 69.6 kDa
Experimental: as §1, §2

[5] = target: T6, human Heregulin fragment (HRG) (human); assay: SPR Biacore T100, antibody captured, 25 C
T6 construct: also called Heregulin beta (HRG)
T6 chain: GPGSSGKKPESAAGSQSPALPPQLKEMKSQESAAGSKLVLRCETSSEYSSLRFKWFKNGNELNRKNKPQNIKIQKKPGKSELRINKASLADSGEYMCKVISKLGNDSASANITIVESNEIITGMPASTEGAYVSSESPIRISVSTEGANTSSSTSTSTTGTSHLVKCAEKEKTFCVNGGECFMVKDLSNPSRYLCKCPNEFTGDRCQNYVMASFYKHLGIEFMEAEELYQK
Experimental: as §1, §2

[6] = target: T1, human recombinant HER3 ECD; assay: SPR Biacore 4000, antibody captured, antigen 150 nM, 25 C
Experimental: (§3) In all assay the test antibodies were captured. The system was under the control of the software version V1.1. The instrument buffer was HBS-EP (10 mM HEPES (pH 7.4), 150 mM NaCl, 1 mM EDTA, 0.05% (w/v) P20). The system operated at 25° C. 30 μg/ml Rabbit polyclonal antibody (RAM IgG, (Rabbit anti Mouse IgG with Fc gamma specificity) GE Healthcare) in 10 mM sodium acetate buffer (pH 4.5) was immobilized using EDC/NHS chemistry according to the manufacturer's instructions on the spots 1, 2, 4 and 5 in the flow cells 1, 2, 3 and 4. The sensor was saturated using 1M ethanolamine. In each flow cell, referenced signals were calculated using spots 1-2 and spots 5-4, spot 3 served as a blanc control. […] The antibody capture level (CL) in response units was monitored. […] Thereafter, the antibody-antigen complex dissociation signal was recorded for 5 min. […] The recorded signal shortly before the end of the injection of the antigen was denoted as binding late (BL) in response units. The recorded signal shortly before the end of the recording of the dissociation is denoted as stability late (SL) in response units. The dissociation rate constants were determined calculated The antibody-antigen complex stability in minutes was calculated with the following formula: ln(2)/60*kd. The Molar Ratio was calculated with the formula: MW (antibody)/MW(antigen)*BL (antigen)/CL (antibody). […]

TtSlyD-FKBP-Her3 = target: T7, TtSlyD-FKBP-Her3; assay: as above
T7 construct: 15 kDa; N-terminal Met may be present or not; also called Thermus thermophilus SlyD FKBP-Her3; thermo SlyD-Her3
T7 chain: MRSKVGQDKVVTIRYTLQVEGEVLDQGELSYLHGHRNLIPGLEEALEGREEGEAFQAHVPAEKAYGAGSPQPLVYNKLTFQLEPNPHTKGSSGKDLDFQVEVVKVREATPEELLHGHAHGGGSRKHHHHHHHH
Experimental: as §3

T1 sequence (P21860 20-643): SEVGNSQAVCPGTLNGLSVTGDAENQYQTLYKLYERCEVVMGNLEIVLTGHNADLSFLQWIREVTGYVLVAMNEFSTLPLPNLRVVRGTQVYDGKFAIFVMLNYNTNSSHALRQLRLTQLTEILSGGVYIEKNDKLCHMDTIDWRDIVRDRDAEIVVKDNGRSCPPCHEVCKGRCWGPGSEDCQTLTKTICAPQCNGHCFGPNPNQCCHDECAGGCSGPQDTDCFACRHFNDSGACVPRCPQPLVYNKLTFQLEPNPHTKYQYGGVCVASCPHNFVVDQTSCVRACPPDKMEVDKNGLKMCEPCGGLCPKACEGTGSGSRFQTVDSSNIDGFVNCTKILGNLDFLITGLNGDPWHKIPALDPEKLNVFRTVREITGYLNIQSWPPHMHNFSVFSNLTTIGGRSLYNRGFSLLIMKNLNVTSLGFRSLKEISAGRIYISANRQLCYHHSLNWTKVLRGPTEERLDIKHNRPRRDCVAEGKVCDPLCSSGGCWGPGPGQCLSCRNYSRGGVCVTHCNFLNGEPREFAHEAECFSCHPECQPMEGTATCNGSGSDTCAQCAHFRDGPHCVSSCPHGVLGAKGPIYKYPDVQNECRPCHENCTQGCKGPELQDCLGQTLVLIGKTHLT
T2 sequence (P21860 20-643 limits assumed, one chain of several): as the sequence (P21860 20-643) above

B1: anti-HER3/HER4 antibody M-05-74 (antibody, V domains shown)
VH: QVQLQQSGAELAKPGASVKMSCKTSGYTLTDYWIHWVKQRPGQGLEWIGYINPYTGYTESNQKFKDKATLTADKSSNTAYIQLSSLTSEDSAVYYCARPYYYGDYWGQGTTLTVSS
VL: QIVLTQSPAIMSASPGERVTITCSASSSVSYMHWFQQKPGTSPKLLIYSTSNLASGVPARFSGSGSGTSYSLTISRMEAEDAATYYCQQRSSYPFTFGSGTKLEIK
notes: murine monoclonal antibody from hybridoma (supernatant or purified); also called M-074; M-5-74
For B1, the “Molar Ratio MR” value [1] was 0.6, the “Molar Ratio MR” value (HER3 ECD-HRG complex) was 0.7 and the “Molar Ratio MR” value (HER4 ECD-HRG complex) was 0.9. For the same binder, the “Binding Late BL” value [2] was 70 RU, the “Molar Ratio MR” value [2] was 0.2 and the “Binding Late BL” value [3] was 27 RU. The “Molar Ratio MR” value [3] was 0.1, the binding result [4] was “no binding (tested: 90 nM)” and the binding result [5] was “no binding (tested: 90 nM)”. For the same binder, the “Molar Ratio MR” value [6] was 0.5 and the “Molar Ratio MR” value (TtSlyD-FKBP-Her3) was 1.1.
